Publication PMC6824469
Positions count from the first letter of the chain named.

B1: substrate-4 (RNA-4/Cy5 DNA) (DNA:RNA)
DNA 1: GGCACCAACACAAAACACATCTACACUCAACAAUCACUUU
DNA 2: GTAGATGTGTTTTGTGTTGGTGCC
modifications: DNA at nt 17-24 of strand 1 (proximal end of duplex)
B2: substrate-5 (RNA-5/Cy5 DNA) (DNA:RNA)
RNA: B1 DNA 1 with T20U, T22U
DNA: GTAGATGTGTTTTGTGTTGGTGCC
modifications: DNA at nt 9-16 of strand 1 (middle of duplex)
B3: substrate-1 (RNA-1/Cy5 DNA) (DNA:RNA)
RNA: GGCACCAACACAAAACACAUCUACACUCAACAAU
DNA: GTAGATGTGTTTTGTGTTGGTGCC

The binders below were run against Prp43p (rPrp43p);Ntr1p (1-120) (Saccharomyces cerevisiae (budding …, UniProt P53131;Q06411 1-767;1-120, |)) (assay: EMSA).
Sequence of Prp43p (rPrp43p);Ntr1p (1-120) (Saccharomyces cerevisiae (P53131 whole entry, chain 1 of 2): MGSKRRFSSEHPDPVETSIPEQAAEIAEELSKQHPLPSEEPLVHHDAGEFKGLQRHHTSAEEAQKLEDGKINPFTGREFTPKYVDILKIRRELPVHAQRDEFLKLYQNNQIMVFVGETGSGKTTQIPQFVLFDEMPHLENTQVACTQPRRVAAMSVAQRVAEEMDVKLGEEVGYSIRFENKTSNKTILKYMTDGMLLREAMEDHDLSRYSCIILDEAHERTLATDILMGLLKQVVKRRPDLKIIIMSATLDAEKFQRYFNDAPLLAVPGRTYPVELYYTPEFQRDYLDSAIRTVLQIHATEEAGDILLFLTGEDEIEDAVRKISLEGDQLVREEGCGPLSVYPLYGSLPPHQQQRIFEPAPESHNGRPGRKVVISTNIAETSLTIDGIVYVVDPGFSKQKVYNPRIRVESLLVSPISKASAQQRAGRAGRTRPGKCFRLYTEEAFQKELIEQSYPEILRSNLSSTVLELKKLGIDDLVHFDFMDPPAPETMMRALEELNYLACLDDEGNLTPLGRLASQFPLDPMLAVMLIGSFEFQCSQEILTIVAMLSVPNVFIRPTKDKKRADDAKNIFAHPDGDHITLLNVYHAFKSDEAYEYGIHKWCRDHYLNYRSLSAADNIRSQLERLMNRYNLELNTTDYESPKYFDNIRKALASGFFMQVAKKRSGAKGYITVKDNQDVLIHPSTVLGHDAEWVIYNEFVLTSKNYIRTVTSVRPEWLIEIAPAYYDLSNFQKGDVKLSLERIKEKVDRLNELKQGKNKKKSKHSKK
Sequence of Prp43p (rPrp43p);Ntr1p (1-120) (Saccharomyces cerevisiae (Q06411 1-120, chain 2 of 2): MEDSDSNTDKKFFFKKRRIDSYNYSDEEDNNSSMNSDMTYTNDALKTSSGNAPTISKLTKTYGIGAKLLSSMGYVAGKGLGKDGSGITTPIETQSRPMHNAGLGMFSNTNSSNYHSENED

Binding result, binds:
B1
B2
B3
